Assay results from article PMC9401524 (Cancer Discovery, 2021).
Marks after values point to notes of the source that are not given here.

Experiments:
EGFR-mutated NSCLC = details: cited from earlier work
[1] = Phase I study U31402-A-U102, HER3-DXd i.v. once every 3 weeks: safety; format: in vivo, human
[2] = all patients 3.2/4.8/5.6/6.4 mg/kg (n = 81)

In the case of `C=CC(=O)Nc1cc(Nc2nccc(-c3cn(C)c4ccccc34)n2)c(OC)cc1N(C)CCN(C)C` [osimertinib, reference compound], the “Median OS” value (EGFR-mutated NSCLC; third-generation EGFR TKI compared with first-generation EGFR TKIs) is listed as 38.6 months.

With Patritumab deruxtecan [HER3-DXd] the “Patients who experienced dose-limiting toxicities” value ([1]; 4.8 mg/kg dose group, grade 3 neutrophil count decreased, grade 4 platelet count decrease, white blood cell count decrease) was 1 patient, the “Patients who experienced dose-limiting toxicities” value ([1]; 6.4 mg/kg dose group, grade 4 platelet count decrease) was 3 patients and the “Patients who experienced dose-limiting toxicities” value ([1]; […] dose group, grade 3 febrile neutropenia and grade 4 platelet count decrease) was 1 patient. The “Adjudicated treatment-related ILD, patients” value ([1]; all doses (4/81)) was 5%, the “TEAEs associated with death, patients” value ([1]; all doses (5/81), none judged related to study treatment) was 6% and the “Treatment discontinued due to TEAEs, patients” value ([1]; all doses (7/81)) was 9%. For the same molecule, the “Grade 4 thrombocytopenia, patients” value ([1]; all doses (11/81)) was 13.6%, the “Grade ≥3 neutropenia, patients” value ([1]; all doses (12/81)) was 15% and the “TEAEs associated with dose reduction, patients” value ([1]; all doses (18/81)) was 22%. The “Grade ≥3 thrombocytopenia, patients” value ([1]; all doses (21/81)) was 26%, the “TEAEs associated with dose interruption, patients” value ([1]; all doses (30/81)) was 37% and the “TEAE nausea, patients” value ([1]; all doses (49/81)) was 60%. For the same molecule, the “Grade ≥3 TEAEs, patients” value ([1]; all doses (52/81)) was 64%, the “TEAE fatigue, patients” value ([1]; all doses (52/81)) was 64% and the “Adjudicated ILD” value [1, 2] was 5 (6)^e n (%). For the same molecule, the “Adjudicated treatment-related ILD” value [1, 2] was 4 (5)^f n (%), the “Any TEAE” value [1, 2] was 81 (100) n (%) and the “Grade ≥3 TEAE: Anemia/hemoglobin decrease” value [1, 2] was 6 (7) n (%). For the same molecule, the “Grade ≥3 TEAE: Dyspnea” value [1, 2] was 5 (6) n (%), the “Grade ≥3 TEAE: Fatigue” value [1, 2] was 8 (10) n (%) and the “Grade ≥3 TEAE: Febrile neutropenia” value [1, 2] was 5 (6) n (%). For the same molecule, the “Grade ≥3 TEAE: Hypokalemia” value [1, 2] was 4 (5) n (%), the “Grade ≥3 TEAE: Hypoxia” value [1, 2] was 5 (6) n (%) and the “Grade ≥3 TEAE: Lymphocyte count decrease/lymphopenia” value [1, 2] was 4 (5) n (%). For the same molecule, the “Grade ≥3 TEAE: Neutrophil count decrease/neutropenia” value [1, 2] was 12 (15) n (%), the “Grade ≥3 TEAE: Platelet count decrease/thrombocytopenia” value [1, 2] was 21 (26) n (%) and the “Grade ≥3 TEAE: White blood cell count decrease/leukopenia” value [1, 2] was 5 (6) n (%). For the same molecule, the “Grade ≥3 TEAEs” value [1, 2] was 52 (64) n (%), the “Grade ≥3 treatment-related TEAEs” value [1, 2] was 38 (47) n (%) and the “Serious TEAEs” value [1, 2] was 32 (40) n (%). The “Serious treatment-related TEAEs” value [1, 2] was 15 (19) n (%), the “TEAEs associated with death” value [1, 2] was 5 (6)^d n (%) and the “TEAEs associated with dose interruption” value [1, 2] was 30 (37) n (%). For the same molecule, the “TEAEs associated with dose reduction” value [1, 2] was 18 (22) n (%), the “TEAEs associated with treatment discontinuation” value [1, 2] was 7 (9)^b n (%) and the “Treatment-related TEAEs” value [1, 2] was 78 (96) n (%). For the same molecule, the “Treatment-related TEAEs associated with death” value [1, 2] was 0 n (%), the “Patients who experienced dose-limiting toxicities” value ([1]; dose escalation part, 36 patients) was 5 patients and the “Recommended dose for expansion (RDE)” value ([1]; i.v. once every 3 weeks) was 5.6 mg/kg. The “TEAEs associated with dose interruption” value ([1]; pooled RDE […] (n = 57)) was 21 (37) n (%) and the “TEAEs associated with dose reduction” value ([1]; pooled RDE […] (n = 57)) was 12 (21) n (%).

B1: seribantumab (antibody, chains of the INN, looked up)
heavy: EVQLLESGGGLVQPGGSLRLSCAASGFTFSHYVMAWVRQAPGKGLEWVSSISSSGGWTLYADSVKGRFTISRDNSKNTLYLQMNSLRAEDTAVYYCTRGLKMATIFDYWGQGTLVTVSSASTKGPSVFPLAPCSRSTSESTAALGCLVKDYFPEPVTVSWNSGALTSGVHTFPAVLQSSGLYSLSSVVTVPSSNFGTQTYTCNVDHKPSNTKVDKTVERKCCVECPPCPAPPVAGPSVFLFPPKPKDTLMISRTPEVTCVVVDVSHEDPEVQFNWYVDGVEVHNAKTKPREEQFNSTFRVVSVLTVVHQDWLNGKEYKCKVSNKGLPAPIEKTISKTKGQPREPQVYTLPPSREEMTKNQVSLTCLVKGFYPSDIAVEWESNGQPENNYKTTPPMLDSDGSFFLYSKLTVDKSRWQQGNVFSCSVMHEALHNHYTQKSLSLSPG
light: QSALTQPASVSGSPGQSITISCTGTSSDVGSYNVVSWYQQHPGKAPKLIIYEVSQRPSGVSNRFSGSKSGNTASLTISGLQTEDEADYYCCSYAGSSIFVIFGGGTKVTVLGQPKAAPSVTLFPPSSEELQANKATLVCLVSDFYPGAVTVAWKADGSPVKVGVETTKPSKQSNNKYAASSYLSLTPEQWKSHRSYSCRVTHEGSTVEKTVAPAECS
In the case of B1, the “Efficacy of unconjugated HER3 antibody” value (EGFR-mutated NSCLC; in combination with erlotinib) is listed as “did not confer clinically meaningful efficacy”.
